We go through two substances from publication PMC11468790, “New Bacterial Aryl Sulfotransferases: Effective Tools for Sulfation of Polyphenols” (Journal of Agricultural and Food Chemistry, 2024).

In series [1] the test system is O=[N+]([O-])c1ccc(OS(=O)(=O)O)cc1. The experiment in a line: purified protein. The settings on record: varied donor pNPS 0.02-50 mM, acceptor phenol (5-200 mM), 30 °C, activity buffer Tris-glycine pH 8.9.
For series [2], the system named is T1, O=[N+]([O-])c1ccc(OS(=O)(=O)O)cc1.
T1 construct: C-terminal His6 tag, pET-26b(+) NcoI/SacI, E. coli BL21(DE3)pLysS, IMAC, ca. 70 kDa
The series is described as follows: purified protein. The settings on record: varied donor pNPS 0.02-50 mM, acceptor phenol (5-200 mM), 30 °C, activity buffer Tris-glycine pH 8.9. In kind it is biochemical, Desulfosporosinus sp. HMP52.

One may read the Km as the concentration of substrate that gives half-maximal velocity. What is called kcat is the maximal rate divided by the concentration of active sites. Usually kcat/Km stands for the turnover number divided by the Michaelis constant. For the substance DalAST (Desulfofalx alkaliphila), in series [1], the Km was 34 ± 2 µM, the kcat was 0.705 ± 0.007 s⁻¹ and the kcat/Km was determined as 21000 M⁻¹ s⁻¹.
For the substance DsAST (Desulfosporosinus sp. HMP52), in series [2], the Km came out at 570 ± 20 µM, the kcat was 32.5 ± 0.4 s⁻¹ and the kcat/Km worked out at 57000 M⁻¹ s⁻¹.
